Earlier results in publication PMC5428663, “Identification of small molecule inhibitors of Interleukin-18” (Scientific Reports, 2017).

Target: hIL-18
Details: read-out: affinity for hIL-18

B1: hIL-18BP (protein, UniProt O95998 31-194, looked up)
Interleukin-18-binding protein: TPVSQTTTAATASVRSTKDPCPSQPPVFPAAKQCPALEVTWPEVEVPLNGTLSLSCVACSRFPNFSILYWLGNGSFIEHLPGRLWEGSTSRERGSTGTQLCKALVLEQLTPALHSTNFSCVLVDPEQVVQRHVVLAQLWAGLRATLPPTQEALPSSHSSPQQQG
Kd: 0.4 nM
